How the values were obtained:
HuCD100-His = HuCD100-His (human, UniProt Q92854 22-734); test: cell-based or functional assay
[1] = target: T1, full-length human CD100 protein HuCD100 on cells (human, UniProt Q92854 22-862); test: flow cytometry on HuPBMCs naturally expressing human CD100
T1 construct: whole, on cells; the cell is named under assay; also called HuCD100-HEK293; human CD100 on HuPBMC
Experimental: (§1) The specific procedures were as follows: HuPBMCs (AllCells, PB004F-C (Y1246)) and Jurkat cells (ATCC, TIB-152) in logarithmic growth phase were prepared as single-cell suspensions. The density was adjusted to 1×10⁶ cells/mL, and 100 μL of each suspension was added per well to 96-well plates. The plates were centrifuged at 4° C., 300 g and the supernatants were removed. […] After incubation, the cell mixture was washed three times, and then 100 μL of 1:300 diluted secondary antibody Goat F(ab′)₂ Anti-Human IgG-Fc (PE) (abcam, ab98596) was added, and the plates were incubated in the dark at 4° C. for 30 min. Following 3 additional washes, detection was performed using a flow cytometer (Beckman, CytoFLEX AOO-1-1102).

[2] = target: T1, full-length human CD100 protein HuCD100 …; test: flow cytometry on Jurkat cells naturally expressing human CD100
Experimental: as §1

[3] = target: T2, full-length mouse CD100 protein MusCD100 on cells (mouse, UniProt O09126 24-861); test: flow cytometry on MusCD100-HEK293 cells
T2 construct: whole, on cells; Overexpressed on HEK293 cells; also called MusCD100-HEK293

MusCD100-His [4] = target: T3, MusCD100-His (mouse, UniProt O09126 24-733); test: primary ELISA screening of monoclonal clones
T3 construct: range 24-733; Expressed in HEK293 cells; also called MusCD100-His antigen protein; not shown: His tag added to the C-terminus

MusCD100-His [5] = target: T3, MusCD100-His; test: ELISA, antigen coated on plate
[6] = target: T4, full-length mouse Plexin-B1 protein MusPlexin-B1 on cells (mouse, UniProt Q8CJH3 20-2119); test: flow cytometry on MusPlexin-B1-HEK293 cells with biotinylated antigen protein and streptavidin PE
T4 construct: whole, on cells; Overexpressed on HEK293 cells; also called MusPlexin-B1-HEK293
Experimental: Flow cytometry identification of HuPlexin-B1-HEK293, MusPlexin-B1-HEK293, CynoPlexin-B1-HEK293, and HuPlexin-B2-HEK293 cells: cells of the above cell lines in the logarithmic growth phase were trypsinized and plated into 96-well plates. […] After washing, the prepared eBioscience Streptavidin PE (Invitrogen, 2265658, 1:300) was added and the plates were incubated at 4° C. for 30 min. Finally, detection was performed using a flow cytometer (Beckman, CytoFLEXAOO-1-1102).

T4 sequence (Q8CJH3 20-2119): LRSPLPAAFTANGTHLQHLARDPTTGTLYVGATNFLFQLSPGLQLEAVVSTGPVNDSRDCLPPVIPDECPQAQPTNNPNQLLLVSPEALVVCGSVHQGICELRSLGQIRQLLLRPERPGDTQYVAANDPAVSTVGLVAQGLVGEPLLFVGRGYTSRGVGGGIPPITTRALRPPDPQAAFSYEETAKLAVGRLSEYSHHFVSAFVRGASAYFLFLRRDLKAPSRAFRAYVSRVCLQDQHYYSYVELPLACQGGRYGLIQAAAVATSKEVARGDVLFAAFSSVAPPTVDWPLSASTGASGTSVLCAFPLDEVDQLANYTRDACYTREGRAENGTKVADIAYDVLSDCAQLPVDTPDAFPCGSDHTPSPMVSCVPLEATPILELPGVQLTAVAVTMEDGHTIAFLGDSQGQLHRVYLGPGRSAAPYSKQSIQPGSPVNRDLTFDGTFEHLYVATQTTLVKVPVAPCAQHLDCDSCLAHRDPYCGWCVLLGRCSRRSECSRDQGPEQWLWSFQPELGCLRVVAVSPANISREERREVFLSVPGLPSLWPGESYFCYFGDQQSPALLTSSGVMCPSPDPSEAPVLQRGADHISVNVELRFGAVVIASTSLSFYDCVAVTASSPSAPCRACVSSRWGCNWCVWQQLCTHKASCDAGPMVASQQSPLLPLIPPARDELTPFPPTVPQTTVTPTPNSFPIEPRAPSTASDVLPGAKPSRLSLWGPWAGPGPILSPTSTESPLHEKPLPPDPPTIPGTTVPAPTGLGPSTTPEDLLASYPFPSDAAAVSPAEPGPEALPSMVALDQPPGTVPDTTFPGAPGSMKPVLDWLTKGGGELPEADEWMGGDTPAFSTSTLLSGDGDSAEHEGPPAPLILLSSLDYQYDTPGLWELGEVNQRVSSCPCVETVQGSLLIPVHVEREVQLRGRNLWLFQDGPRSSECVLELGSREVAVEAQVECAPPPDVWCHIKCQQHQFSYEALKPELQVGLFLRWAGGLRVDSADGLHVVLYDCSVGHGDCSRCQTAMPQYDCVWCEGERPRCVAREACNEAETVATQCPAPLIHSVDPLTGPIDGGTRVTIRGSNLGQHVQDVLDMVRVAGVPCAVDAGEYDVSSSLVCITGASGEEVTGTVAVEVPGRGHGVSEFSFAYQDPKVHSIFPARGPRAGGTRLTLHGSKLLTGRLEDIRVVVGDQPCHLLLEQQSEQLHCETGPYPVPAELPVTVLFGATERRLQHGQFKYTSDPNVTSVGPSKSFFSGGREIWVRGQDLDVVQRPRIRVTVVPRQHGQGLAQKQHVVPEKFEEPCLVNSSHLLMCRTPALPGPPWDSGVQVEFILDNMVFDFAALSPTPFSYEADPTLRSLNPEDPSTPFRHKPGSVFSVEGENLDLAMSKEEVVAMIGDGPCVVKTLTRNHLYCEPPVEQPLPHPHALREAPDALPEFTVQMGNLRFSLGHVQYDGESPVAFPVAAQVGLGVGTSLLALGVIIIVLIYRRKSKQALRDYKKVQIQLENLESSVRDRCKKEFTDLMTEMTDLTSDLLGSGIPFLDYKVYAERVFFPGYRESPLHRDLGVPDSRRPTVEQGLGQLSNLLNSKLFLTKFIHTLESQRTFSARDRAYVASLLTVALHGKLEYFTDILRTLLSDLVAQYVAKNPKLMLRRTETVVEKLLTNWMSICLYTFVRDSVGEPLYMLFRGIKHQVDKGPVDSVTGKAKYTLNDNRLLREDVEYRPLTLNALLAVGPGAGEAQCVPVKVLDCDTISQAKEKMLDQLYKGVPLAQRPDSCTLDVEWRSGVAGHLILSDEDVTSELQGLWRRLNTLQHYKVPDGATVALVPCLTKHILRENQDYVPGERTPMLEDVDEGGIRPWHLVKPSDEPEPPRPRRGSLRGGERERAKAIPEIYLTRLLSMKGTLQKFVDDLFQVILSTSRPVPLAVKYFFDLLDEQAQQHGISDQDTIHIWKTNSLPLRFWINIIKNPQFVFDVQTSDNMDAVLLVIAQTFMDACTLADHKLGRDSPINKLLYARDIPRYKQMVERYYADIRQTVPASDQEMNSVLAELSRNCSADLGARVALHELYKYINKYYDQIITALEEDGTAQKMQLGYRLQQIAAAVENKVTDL

B1: A31 (antibody, human IgG4 S228P, V domains shown)
VH: EVQLVESGGGLVQPEGSLRLSCAASGFPLDYYAIGWFRQAPGKEREGVSCIISGGSTKYSASVKGRFTISRDSANNTVYLQMNSLKPEDTAVYFCAVSWSCDLFPRDTYGWDAWGQGTLVTVSS
notes: also called antibody A31; antibody molecule A31
MDSC proportion (%) at 2.821 nM antibody (HuCD100-His): 16.8% | MDSC proportion (%) at 8.463 nM antibody (HuCD100-His): 8.97% | MDSC proportion (%) at 25.389 nM antibody (HuCD100-His): 9.56% | MDSC proportion (%) at 76.166 nM antibody (HuCD100-His): 10.4% | MDSC proportion (%) at 228.498 nM antibody (HuCD100-His): 10.7% | MDSC proportion (%) at 685.495 nM antibody (HuCD100-His): 14.7% | EC50 [1]: 162 pM | EC50 [2]: 302 pM | binding result [3]: binds

B2: A31-VHH (VHH)
VHH: EVQLVESGGGLVQPEGSLRLSCAASGFPLDYYAIGWFRQAPGKEREGVSCIISGGSTKYSASVKGRFTISRDSANNTVYLQMNSLKPEDTAVYFCAVSWSCDLFPRDTYGWDAWGQGTLVTVSS
notes: Tested as phage clone / VHH lysate in the screening; also called antibody A31-VHH
binding result (MusCD100-His [4]): binds

B3: A31-VHH1 (antibody, human IgG4 S228P, V domains shown)
VH: EVQLVESGGGLVQPEGSLRLSCAASGFPLDYYAIGWFRQAPGKEREGVSCIISGGSTKYSASVKGRFTISRDSAKNTVYLQMNSLRAEDTAVYFCAVSWSCDLFPRDTYGWDAWGQGTLVTVSS
notes: also called humanized antibody A31-VHH1
MDSC proportion (%) at 2.821 nM antibody (HuCD100-His): 16.4% | MDSC proportion (%) at 8.463 nM antibody (HuCD100-His): 9.21% | MDSC proportion (%) at 25.389 nM antibody (HuCD100-His): 7.71% | MDSC proportion (%) at 76.166 nM antibody (HuCD100-His): 7.84% | MDSC proportion (%) at 228.498 nM antibody (HuCD100-His): 13.7% | MDSC proportion (%) at 685.495 nM antibody (HuCD100-His): 10% | binding result (MusCD100-His [5]): binds | binding result [3]: binds

B4: MusCD100-Fc (Fc fusion, mouse, UniProt O09126 24-733, looked up)
chain: FAPVPRLTWEHGEVGLVQFHKPGIFNYSALLMSEDKDTLYVGAREAVFAVNALNISEKQHEVYWKVSEDKKSKCAEKGKSKQTECLNYIRVLQPLSSTSLYVCGTNAFQPTCDHLNLTSFKFLGKSEDGKGRCPFDPAHSYTSVMVGGELYSGTSYNFLGSEPIISRNSSHSPLRTEYAIPWLNEPSFVFADVIQKSPDGPEGEDDKVYFFFTEVSVEYEFVFKLMIPRVARVCKGDQGGLRTLQKKWTSFLKARLICSKPDSGLVFNILQDVFVLRAPGLKEPVFYAVFTPQLNNVGLSAVCAYTLATVEAVFSRGKYMQSATVEQSHTKWVRYNGPVPTPRPGACIDSEARAANYTSSLNLPDKTLQFVKDHPLMDDSVTPIDNRPKLIKKDVNYTQIVVDRTQALDGTFYDVMFISTDRGALHKAVILTKEVHVIEETQLFRDSEPVLTLLLSSKKGRKFVYAGSNSGVVQAPLAFCEKHGSCEDCVLARDPYCAWSPAIKACVTLHQEEASSRGWIQDMSGDTSSCLDKSKESFNQHFFKHGGTAELKCFQKSNLARVVWKFQNGELKAASPKYGFVGRKHLLIFNLSDGDSGVYQCLSEERVRNKTVSQLLAKHVLEVKMVPRTPPSPTSEDAQTEGSKITSKMPVASTQGSSPPTPALWATSPRAATLPPKSSSGTSCEPKMVINTVPQLHSEKTVYLKSSDNR
modifications: biotinylated in the Plexin binding and blocking assays (sites not given)
notes: range 24-733; Expressed in HEK293 cells; also called MusCD100-Fc-Biotin; MusCD100-Fc antigen protein; not shown: human Fc tag added to the C-terminus
binding result [6]: binds

B5: A9-VHH2 (antibody, human IgG4 S228P, V domains shown)
VH: QVQLVESGGGLVQAGGSLRLSCAASGFSLDYYAIGWFRQAPGKEREEVSCISSSGGSTDYADSVKGRFTISRAYAKVYLQMNSLRAEDTAVYYCAAGVSGSVCPPLIGAYWGQGTLVTVSS
MDSC proportion (%) at 2.821 nM antibody (HuCD100-His): 31.2% | MDSC proportion (%) at 8.463 nM antibody (HuCD100-His): 17.8% | MDSC proportion (%) at 25.389 nM antibody (HuCD100-His): 13.1% | MDSC proportion (%) at 76.166 nM antibody (HuCD100-His): 10.5% | MDSC proportion (%) at 228.498 nM antibody (HuCD100-His): 9.09% | MDSC proportion (%) at 685.495 nM antibody (HuCD100-His): 10.9%

B6: A9 (antibody, human IgG4 S228P, V domains shown)
VH: QVQLVESGGGLVQAGGSLRLSCAASGFSLDYYAIGWFRQAPGKEREEVSCISSSGGSTDYADSVKGRFTISRAYAKVYLQMNSLKPEDTAVYYCAAGVSGSVCPPLIGAYWGQGTQVTVSS
notes: also called antibody A9; antibody molecule A9
MDSC proportion (%) at 2.821 nM antibody (HuCD100-His): 34.2% | MDSC proportion (%) at 8.463 nM antibody (HuCD100-His): 23.2% | MDSC proportion (%) at 25.389 nM antibody (HuCD100-His): 10.2% | MDSC proportion (%) at 76.166 nM antibody (HuCD100-His): 5.12% | MDSC proportion (%) at 228.498 nM antibody (HuCD100-His): 7.08% | MDSC proportion (%) at 685.495 nM antibody (HuCD100-His): 11.1% | EC50 [1]: 191 pM | EC50 [2]: 346 pM

B7: A9-VHH1 (antibody, human IgG4 S228P, V domains shown)
VH: QVQLVESGGGLVQPGGSLRLSCAASGFSLDYYAIGWFRQAPGKEREEVSCISSSGGSTDYADSVKGRFTISRAYAKVYLQMNSLKPEDTAVYYCAAGVSGSVCPPLIGAYWGQGTLVTVSS
MDSC proportion (%) at 2.821 nM antibody (HuCD100-His): 32.6% | MDSC proportion (%) at 8.463 nM antibody (HuCD100-His): 21.1% | MDSC proportion (%) at 25.389 nM antibody (HuCD100-His): 11% | MDSC proportion (%) at 76.166 nM antibody (HuCD100-His): 6.56% | MDSC proportion (%) at 228.498 nM antibody (HuCD100-His): 9.06% | MDSC proportion (%) at 685.495 nM antibody (HuCD100-His): 15.6%

B8: A9-VHH3 (antibody, human IgG4 S228P, V domains shown)
VH: QVQLVESGGGLVQAGGSLRLSCAASGFSLDYYAIGWFRQAPGKGLEEVSCISSSGGSTDYADSVKGRFTISRAYAKVYLQMNSLRAEDTAVYYCAAGVSGSVCPPLIGAYWGQGTLVTVSS
MDSC proportion (%) at 2.821 nM antibody (HuCD100-His): 30.9% | MDSC proportion (%) at 8.463 nM antibody (HuCD100-His): 21.3% | MDSC proportion (%) at 25.389 nM antibody (HuCD100-His): 11.8% | MDSC proportion (%) at 76.166 nM antibody (HuCD100-His): 7.66% | MDSC proportion (%) at 228.498 nM antibody (HuCD100-His): 8.85% | MDSC proportion (%) at 685.495 nM antibody (HuCD100-His): 15%

B9: Pepinemab (antibody, V domains shown)
VH: QVQLVQSGAEVKKPGSSVKVSCKASGYSFSDYYMHWVRQAPGQGLEWMGQINPTTGGASYNQKFKGKATITVDKSTSTAYMELSSLRSEDTAVYYCARYYYGRHFDVWGQGTTVTVSS
VL: DIVMTQSPDSLAVSLGERATINCKASQSVDYDGDSYMNWYQQKPGQPPKLLIYAASNLESGVPDRFSGSGSGTDFTLTISSLQAEDVAVYYCQQSNEDPYTFGQGTKLEIK
EC50 [1]: 223 pM | EC50 [2]: 559 pM

Source: patent US20260028402A1 (SANYOU BIOPHARMACEUTICALS, published 2026)
